Data published in patent publication US20190015518A1, “DRUG DELIVERY COMPOSITIONS AND METHODS” (priority 2016, published 2019).

Test: Clinical chemistry of a healthy dog given 1.5 mg/kg on day 1 and 2.0 mg/kg on day 70, sub-mucosa
Format: in vivo
Protocol: Before each dose, the dog was examined by clinical chemistry, hematology, and urinalysis. Additional examinations of clinical chemistry and hematology were performed on days 7, 14, and 42 after the first dose. Additional tests of urinalysis were performed on days 7 and 14 after the first dose. The potential drug-induced toxicities were monitored for 56 days after the second dose. Specifically, clinical chemistry and urinalysis were performed on days 7, 14, 21, and 56, and hematology was performed on days 7, 14, and 56 after the second dose to evaluate the tolerability and toxicity of the formulation.
Clinical chemistry examinations were performed at pre- and post-dose for both injections. The injections were given via the sub-mucosa in the mouth.

HA-cis-[Pt(NH3)2(N^α-Acetyl-L-Lysine)] [75HA-Lys-Pt]
ALP elevation (2 mg/kg, 7-days post-dose): 0.7 fold | ALT elevation (2 mg/kg, 7-days post-dose): 4.6 fold | AST elevation (2 mg/kg, 7-days post-dose): 8.7 fold | ALP, higher than the pre-dose level (2 mg/kg, 8-weeks post-dose): 0.27 fold | Alanine aminotransferase (2 mg/kg, 7 days after): 330 U/L | Albumin (2 mg/kg, 7 days after): 2.5 g/dL | Alkaline phosphatase (2 mg/kg, 7 days after): 237 U/L | Aspartate aminotransferase (2 mg/kg, 7 days after): 309 U/L | Calcium (2 mg/kg, 7 days after): 9.3 mg/dL | Cholesterol (2 mg/kg, 7 days after): 81 mg/dL | Creatine kinase (2 mg/kg, 7 days after): 105 U/L | Creatinine (2 mg/kg, 7 days after): 0.25 mg/dL | Gamma glutamyltransferase (2 mg/kg, 7 days after): 0 U/L | Globulin (2 mg/kg, 7 days after): 2.9 g/dL | Glucose (2 mg/kg, 7 days after): 83 mg/dL | Inorganic Phosphorus (2 mg/kg, 7 days after): 2.8 mg/dL | Total Bilirubin (2 mg/kg, 7 days after): 0.3 mg/dL | Total Protein (2 mg/kg, 7 days after): 5.4 g/dL | Triglyceride (2 mg/kg, 7 days after): 32 mg/dL | Urea Nitrogen (2 mg/kg, 7 days after): 11 mg/dL | Alanine aminotransferase (2 mg/kg, 14 days after): 223 U/L | Albumin (2 mg/kg, 14 days after): 2.4 g/dL | Alkaline phosphatase (2 mg/kg, 14 days after): 249 U/L | Calcium (2 mg/kg, 14 days after): 8.6 mg/dL | Cholesterol (2 mg/kg, 14 days after): 75 mg/dL | Creatine kinase (2 mg/kg, 14 days after): 143 U/L | Creatinine (2 mg/kg, 14 days after): 0.3 mg/dL | Gamma glutamyltransferase (2 mg/kg, 14 days after): 0 U/L | Glucose (2 mg/kg, 14 days after): 76 mg/dL | Inorganic Phosphorus (2 mg/kg, 14 days after): 3.4 mg/dL | Total Bilirubin (2 mg/kg, 14 days after): 0.1 mg/dL | Total Protein (2 mg/kg, 14 days after): 5.5 g/dL | Triglyceride (2 mg/kg, 14 days after): 43 mg/dL | Urea Nitrogen (2 mg/kg, 14 days after): 14 mg/dL | Alanine aminotransferase (2 mg/kg, 21 days after): 198 U/L | Albumin (2 mg/kg, 21 days after): 2.7 g/dL | Alkaline phosphatase (2 mg/kg, 21 days after): 219 U/L | Aspartate aminotransferase (2 mg/kg, 21 days after): 129 U/L | Calcium (2 mg/kg, 21 days after): 9.3 mg/dL | Cholesterol (2 mg/kg, 21 days after): 70 mg/dL | Creatinine (2 mg/kg, 21 days after): 0.33 mg/dL | Gamma glutamyltransferase (2 mg/kg, 21 days after): 0 U/L | Glucose (2 mg/kg, 21 days after): 64 mg/dL | Inorganic Phosphorus (2 mg/kg, 21 days after): 3.9 mg/dL | Total Bilirubin (2 mg/kg, 21 days after): 0.2 mg/dL | Total Protein (2 mg/kg, 21 days after): 5.8 g/dL | Triglyceride (2 mg/kg, 21 days after): 39 mg/dL | Urea Nitrogen (2 mg/kg, 21 days after): 14 mg/dL | Alanine aminotransferase (2 mg/kg, 56 days after): 220 U/L | Albumin (2 mg/kg, 56 days after): 3.0 g/dL | Alkaline phosphatase (2 mg/kg, 56 days after): 173 U/L | Aspartate aminotransferase (2 mg/kg, 56 days after): 138 U/L | Calcium (2 mg/kg, 56 days after): 9.7 mg/dL | Cholesterol (2 mg/kg, 56 days after): 86 mg/dL | Creatine kinase (2 mg/kg, 56 days after): 117 U/L | Creatinine (2 mg/kg, 56 days after): 0.3 mg/dL | Gamma glutamyltransferase (2 mg/kg, 56 days after): 0 U/L | Globulin (2 mg/kg, 56 days after): 3.3 g/dL | Glucose (2 mg/kg, 56 days after): 73 mg/dL | Inorganic Phosphorus (2 mg/kg, 56 days after): 2.5 mg/dL | Total Bilirubin (2 mg/kg, 56 days after): 0.4 mg/dL | Total Protein (2 mg/kg, 56 days after): 6.3 g/dL | Triglyceride (2 mg/kg, 56 days after): 42 mg/dL | Urea Nitrogen (2 mg/kg, 56 days after): 14 mg/dL | Alanine aminotransferase ([…], 7 days after): 36 U/L | Albumin ([…], 7 days after): 2.4 g/dL | Alkaline phosphatase ([…], 7 days after): 132 U/L | Aspartate aminotransferase ([…], 7 days after): 67 U/L | Calcium ([…], 7 days after): 8.8 mg/dL | Cholesterol ([…], 7 days after): 89 mg/dL | Creatine kinase ([…], 7 days after): 93 U/L | Creatinine ([…], 7 days after): 0.33 mg/dL | Globulin ([…], 7 days after): 2.6 g/dL | Glucose ([…], 7 days after): 70 mg/dL | Inorganic Phosphorus ([…], 7 days after): 3.3 mg/dL | Total Bilirubin ([…], 7 days after): 0.1 mg/dL | Total Protein ([…], 7 days after): 5.0 g/dL | Triglyceride ([…], 7 days after): 34 mg/dL | Urea Nitrogen ([…], 7 days after): 13 mg/dL | Alanine aminotransferase ([…], 14 days): 57 U/L | Albumin ([…], 14 days): 2.4 g/dL | Alkaline phosphatase ([…], 14 days): 116 U/L | Aspartate aminotransferase ([…], 14 days): 89 U/L | Calcium ([…], 14 days): 9.4 mg/dL | Cholesterol ([…], 14 days): 97 mg/dL | Creatine kinase ([…], 14 days): 207 U/L | Creatinine ([…], 14 days): 0.35 mg/dL | Globulin ([…], 14 days): 2.8 g/dL | Glucose ([…], 14 days): 80 mg/dL | Inorganic Phosphorus ([…], 14 days): 5.5 mg/dL | Total Bilirubin ([…], 14 days): 0.0 mg/dL | Total Protein ([…], 14 days): 5.2 g/dL | Triglyceride ([…], 14 days): 38 mg/dL | Urea Nitrogen ([…], 14 days): 19 mg/dL | Alanine aminotransferase ([…], 42 days): 74 U/L | Albumin ([…], 42 days): 3.0 g/dL | Alkaline phosphatase ([…], 42 days): 125 U/L | Aspartate aminotransferase ([…], 42 days): 39 U/L | Creatine kinase ([…], 42 days): 159 U/L | Globulin ([…], 42 days): 2.5 g/dL | Total Bilirubin ([…], 42 days): 0.0 mg/dL | Total Protein ([…], 42 days): 5.5 g/dL
